4 molecules from US20210371514A1 (UNIVERSITY OF FLORIDA RESEARCH FOUNDATION, published 2021) can be followed below.

Some results are limits rather than exact numbers.

The target of assay [1] is T1, Corticotropin-releasing hormone (CRH).
T1 construct: 41-amino acid peptide derived from a 196-amino acid preprohormone (Genbank EAW86897.1); also called CRF; CRF peptide
T1 peptide: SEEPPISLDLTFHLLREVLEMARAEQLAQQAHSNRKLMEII
The assay can be described thus: direct CRH ELISA with lysate of transfected HEK 293t cells. On the procedure:
ScFv constructs offer the advantage of being able to be delivered to the brain via AAV vectors. DNA constructs for ScFv's composed of the heavy and light variable regions of Antibody A and Antibody B, connected by a linker peptide, were generated. The amino acid sequences of the Antibody A and Antibody B scFvs are set forth in SEQ ID NOs: 22 and 23, respectively. DNA constructs were then transfected into Human Embryonic Kidney (HEK) 293t cells and incubated 48 hours. Cells were then lysed and analyzed for CRH binding via a direct CRH ELISA.
In general terms: ELISA stands for enzyme-linked immunosorbent assay.

The target is the same in assay [2]. The assay can be described thus: Octet red BLI, CRF peptide against Antibody B at 300 nM to 0.412 nM; kdis(1/s), same value printed in all seven rows of the table [upper table, CRF peptide]. On the technique in general: BLI is a label-free optical method that tracks binding on a fibre tip over time.
For assay [3] the target is unchanged. Description: method not stated (FIG. 2, affinity of monoclonal antibodies to CRH).
Assay [4] has the same target. The assay can be described thus: Octet red BLI, CRF peptide against Antibody B at 300 nM to 0.412 nM; same value printed in all seven rows of the table [upper table, CRF peptide].

For orientation: koff means the first-order rate constant of dissociation. A high value points to a short-lived complex. As usually defined, the Kd is the concentration at which binding is half-saturated. Low readings indicate a tighter complex, high ones a looser complex. A word on the kon: it is the rate constant with which the complex forms. Low values mean slow association, high ones fast association.

B1: ScFv comprising the heavy and light variable regions of Antibody A (scFv)
scFv: DGVQCEVKLVESGGGLVKPGGSLKLSCAASGFTFSSYAMSWVRQTPEKRLEWVASISIGGSTYYRDSVKGRCTISRDNAKNILYLQMRSLRSEDTAMYYCARRGMDYWGQGTSVTVSSGGGGSGGGGSGGGGSDIVITQDELSNPVTSGESVSISCRSSKSLLYKDGKTYLNWFLQRPGQSPQLLIYLMSTRASGVSDRFSGSGSGTDFTLEISRVKAEDVGVYYCQQLVEYPLTFGAGTKLELKRASGHHHHHHGSDYKDDDDK
notes: also called Antibody A scFv
As to B1, the binding result in assay [1] was “binds”.

B2: anti-CRH antibody B (antibody, V domains shown)
VH: EVQLQQSGPELVKPGVSMKISCKASGYSFTDSTMNWVKQSHGKNLEWIGLIHPDNGGTIYNQKFKGKATLTVHKSSSTAYMELLSLTSEDSAVYYCANGFAYWGQGTLVTVSA
VL: DVVMTQTPLSLPVSLGDQASISCRSSQSLLHSNGNTYLHWYLQKPGQSPELLIYKVSNRFSGVPDRFSGSGSGTDFTLKISRVEAEDLGVYFCSQSTHVPLTFGAGTKLELK
notes: Mouse monoclonal antibody raised with Peptide B (CRH 1-21), purified (QED bio); It was detected with anti-mouse IgG-HRP, and mouse IgG1 served as isotype control in vivo
As to B2, the off-rate constant (koff) in assay [2] is less than 1e-07 s⁻¹. In assay [3], this molecule displayed an equilibrium dissociation constant (Kd) of 20.9 nM. In assay [4], the dissociation constant Kd was less than 0.001 nM and the association rate constant (kon) was 97500 M⁻¹ s⁻¹.

B3: ScFv comprising the heavy and light variable regions of Antibody B (scFv)
scFv: DEVQLQQSGPELVKPGVSMKISCKASGYSFTDSTMNWVKQSHGKNLEWIGLIHPDNGGTIYNQKFKGKATLTVHKSSSTAYMELLSLTSEDSAVYYCANGFAYWGQGTLVTVSAAKTTPPSVYPLAPGSAAGGGGSGGGGSGGGGSDVVMTQTPLSLPVSLGDQASISCRSSQSLLHSNGNTYLHWYLQKPGQSPELLIYKVSNRFSGVPDRFSGSGSGTDFTLKISRVEAEDLGVYFCSQSTHVPLTFGAGTKLELKGSHHHHHHGSDYKDDDDK
notes: also called Antibody B scFv
Turning to B3, the binding result in assay [1] is reported as “binds”.

B4: anti-CRH antibody A (antibody, V domains shown)
VH: EVKLVESGGGLVKPGGSLKLSCAASGFTFSSYAMSWVRQTPEKRLEWVASISIGGSTYYRDSVKGRCTISRDNAKNILYLQMRSLRSEDTAMYYCARRGMDYWGQGTSVTVSS
VL: DIVITQDELSNPVTSGESVSISCRSSKSLLYKDGKTYLNWFLQRPGQSPQLLIYLMSTRASGVSDRFSGSGSGTDFTLEISRVKAEDVGVYYCQQLVEYPLTFGAGTKLELK
notes: Mouse monoclonal antibody raised with Peptide A (CRH 1-15)
In assay [3], B4 registered a Kd of less than 0.001 nM.
